In patent publication US20160237162A1 (AstraZeneca / MedImmune, published 2016):
Substitutions are numbered along the chain they refer to. Names may count otherwise. One block for each binder: values may come before it.

Experiments:
[1] = molecular target: T1, human HER3 on human cancer cells (human, UniProt P21860 20-1342); test: cell-based or functional assay
[2] = molecular target: T2, Recombinant mouse HER3(ECD)/Fc chimera (mouse, UniProt Q61526 20-641); test: ELISA with purified IgG on murine HER3
T2 construct: Generated in house; also called murine HER3 (as a HER3-Fc fusion); murine HER3; not shown: Fc part and any linker or tag of the in-house chimera

[3] = molecular target: T3, Recombinant human HER3(ECD)/Fc chimera (human, UniProt P21860 20-643, biotinylated in the capture ELISA of section 1.9); test: HRG-HER3 ELISA: plate coated with HRG, antibody dilutions premixed with 5 ug/ml recombinant HER3, bound HER3 detected by anti-His HRP; blocked ligand HRG
T3 construct: extracellular domain; Bought (R&D Systems); The ELISA sections say only 'recombinant HER3 protein' / 'biotinylated HER3 protein' / 'recombinant HER3'; also called recombinant HER3 protein; biotinylated HER3 protein; not shown: Fc, linker peptide and C-terminal 6x Histidine-tag

[4] = molecular target: T1, human HER3 on human cancer cells; test: cell-based or functional assay; remark: listed apart in the source
[5] = molecular target: T1, human HER3 on human cancer cells; test: cell-based or functional assay; remark: listed apart in the source
[6] = molecular target: T3, Recombinant human HER3(ECD)/Fc chimera; test: Fab capture ELISA with biotinylated HER3
Experimental: (§1) Briefly, this capture ELISA involved coating individual wells of a 96-well Maxisorp Immunoplate with approximately 50 ng of a sheep anti-human Fd antibody (Biodesign International, ME) in a carbonate buffer at pH 8.5 overnight at 4° C. The next day, the plate was blocked with 3% BSA in PBS buffer for 1 h at room temperature. Fab supernatant was then added to the plate and incubated at room temperature for 1 hr. After washing, 0.1 μg of biotinylated HER3 protein was added to the well and the mixture was incubated for 1.5 h at room temperature. This was followed by incubation with neutravidin-horseradish peroxydase (HRP) conjugate (Pierce, Ill.) for approximately 40 min at room temperature. HRP activity was detected with tetra-methyl-benzidine (TMB) substrate and the reaction quenched with 0.2 M H₂SO₄. Plates were read at 450 nm.
(§2) The Fab concentration was determined by comparing the ELISA signals with the signals generated by the reference Fab.

[7] = molecular target: T1, human HER3 on human cancer cells; test: cell-based or functional assay; remark: listed apart in the source
[8] = molecular target: T1, human HER3 on human cancer cells; test: cell-based or functional assay; remark: listed apart in the source
[9] = molecular target: T1, human HER3 on human cancer cells; test: cell-based or functional assay; remark: listed apart in the source
[10] = molecular target: T1, human HER3 on human cancer cells; test: cell-based or functional assay; remark: listed apart in the source
[11] = molecular target: T1, human HER3 on human cancer cells; test: cell-based or functional assay; remark: listed apart in the source
[12] = molecular target: T1, human HER3 on human cancer cells; test: cell-based or functional assay; remark: listed apart in the source
[13] = molecular target: T1, human HER3 on human cancer cells; test: cell-based or functional assay; remark: listed apart in the source
[14] = molecular target: T1, human HER3 on human cancer cells; test: cell-based or functional assay; remark: listed apart in the source
[15] = molecular target: T3, Recombinant human HER3(ECD)/Fc chimera; test: Fab capture ELISA with biotinylated HER3, against GL-P6
Experimental: as §1, §2

B1: 1A4 antibody, human IgG1 (antibody, V domains shown)
VH: EVQLLESGGGLVQPGGSLRLSCAASGFTFSYYYMQWVRQAPGKGLEWVSYIGSSGGVTNYADSVKGRFTISRDNSKNTLYLQMNSLRAEDTAVYYCARVGLGDAFDIWGQGTMVTVSS
VL: QSVLTQPPSASGTPGQRVTISCSGSSSNIGLNYVSWYQQLPGTAPKLLISRNNQRPSGVPDRFSGSKSGTSASLAISGLRSEDEADYYCAAWDDSPPGEAFGGGTKLTVL
notes: IgG1, lambda
BT474 6-day growth % Max inhibition [1]: 54.5%
BT474 clonogenic assay % Max inhibition [1]: 81.3%
BT474 pAKT assay % Max inhibition [1]: 62%
T47D HRG inducible pHer3 % Max inhibition [1]: 84%
binding result [2]: binds

B2: Clone 16 antibody (CL16), human IgG1 (antibody, V domains shown)
VH: B1 VH
VL: B1 VL with S2Y, V3E, I20M, P96L, P97S, A100V
notes: also called parental IgG; Clone 16-PA
BT474 6-day growth % Max inhibition [1]: 46%
BT474 clonogenic assay % Max inhibition [1]: 79.8%
BT474 pAKT assay % Max inhibition [1]: 64%
T47D HRG inducible pHer3 % Max inhibition [1]: 75%
IC50 (read off the curve) [3]: ~0.6 µg/mL

B3: 2C2-YTE monoclonal antibody (antibody, human IgG1, V domains shown)
VH: B1 VH
VL: B1 VL with S26L
IC50 (read off the curve); suppression of pHER3 (pHER3 ELISA), BT-474 cells [4]: ~0.003 ug/ml
IC50 (read off the curve); suppression of pAKT (Meso-Scale Discovery assay), BT-474 cells [5]: ~0.003 ug/ml

B5: 2C2 monoclonal antibody, human IgG1 (antibody, V domains shown)
VH: B1 VH
VL: B1 VL with S26L
IC50; suppression of pHER3 (pHER3 ELISA), HCC827 cells [7]: 2 ng/ml
IC50; suppression of HRG-induced pHER3 (pHER3 ELISA), MCF-7 cells [8]: 8.4 ng/ml
IC50; suppression of pAKT (Meso-Scale Discovery assay), MKN45 cells [9]: 2.9 ng/ml
HRG-induced pHER3 ELISA in MCF-7 cells; potency by IC50 against MM and AMG [10]: ~5 fold
IC50; suppression of pHER3 (pHER3 ELISA), BT-474 cells [4]: 0.004 ug/ml
IC50; suppression of pAKT (Meso-Scale Discovery assay), Kato III cells [11]: 0.9 ng/ml
IC50; suppression of pAKT (Meso-Scale Discovery assay), BT-474 cells [5]: 0.003 ug/ml
BT474 clonogenic assay % Max inhibition [1]: 87.2%
BT474 pAKT assay % Max inhibition [1]: 61%
T47D HRG inducible pHer3 % Max inhibition [1]: 85%
IC50; growth suppression (CellTiter-Glo, 6 days), HMCB melanoma cells [12]: 0.027 µg/mL
IC50; suppression of pHER3 (pHER3 ELISA), Kato III cells [13]: 0.8 ng/ml
IC50; suppression of pHER3 (pHER3 ELISA), EGFR-TKI (gefitinib)-resistant HCC827 cells [14]: 3.5 ng/ml

B9: P2B11 antibody, human IgG1 (antibody, V domains shown)
VH: B1 VH
VL: not shown
BT474 6-day growth % Max inhibition [1]: 47.5%
BT474 clonogenic assay % Max inhibition [1]: 87.1%
BT474 pAKT assay % Max inhibition [1]: 62%
T47D HRG inducible pHer3 % Max inhibition [1]: 85%

Further lines, results first:

binding result [6]: binds
B4: clone 4H6 Fab (Fab, V domains shown)
VH: B1 VH
VL: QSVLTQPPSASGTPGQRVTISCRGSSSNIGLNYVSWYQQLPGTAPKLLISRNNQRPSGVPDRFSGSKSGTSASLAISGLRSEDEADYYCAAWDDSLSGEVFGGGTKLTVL
notes: Fab, single VL mutant (S24R) of GL-P6

BT474 6-day growth % Max inhibition [1]: 49%
BT474 clonogenic assay % Max inhibition [1]: 80.4%
BT474 pAKT assay % Max inhibition [1]: 62%
T47D HRG inducible pHer3 % Max inhibition [1]: 86%
B6: 2F10 antibody, human IgG1 (antibody, V domains shown)
VH: B1 VH
VL: B1 VL with P97S

fold binding improvement [15]: 3.5 fold
B7: clone 8A3 Fab (Fab, V domains shown)
VH: B1 VH
VL: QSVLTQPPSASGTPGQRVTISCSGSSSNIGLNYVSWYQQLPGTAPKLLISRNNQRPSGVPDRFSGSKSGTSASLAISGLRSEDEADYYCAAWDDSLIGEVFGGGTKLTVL
notes: Fab, single VL mutant (S96aI) of GL-P6

BT474 6-day growth % Max inhibition [1]: 48.1%
BT474 clonogenic assay % Max inhibition [1]: 79.2%
BT474 pAKT assay % Max inhibition [1]: 66%
T47D HRG inducible pHer3 % Max inhibition [1]: 86%
binding result [2]: binds
B8: 3E1 antibody, human IgG1 (antibody, V domains shown)
VH: B1 VH
VL: B1 VL with S23R
notes: IgG1, lambda

binding result [6]: binds
B10: clone 2D1 Fab (Fab, V domains shown)
VH: B1 VH
VL: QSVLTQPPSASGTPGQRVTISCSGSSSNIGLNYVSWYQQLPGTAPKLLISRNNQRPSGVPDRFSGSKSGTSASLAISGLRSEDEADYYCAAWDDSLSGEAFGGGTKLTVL
notes: Fab, single VL mutant (V97A) of GL-P6

fold binding improvement [15]: 8.6 fold
B11: clone 4C4 Fab (Fab, V domains shown)
VH: B1 VH
VL: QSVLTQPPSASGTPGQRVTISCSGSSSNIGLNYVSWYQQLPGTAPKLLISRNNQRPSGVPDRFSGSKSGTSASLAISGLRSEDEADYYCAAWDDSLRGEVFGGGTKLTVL
notes: Fab, single VL mutant (S96aR) of GL-P6

binding result [6]: binds
B12: clone 6E3 Fab (Fab, V domains shown)
VH: B1 VH
VL: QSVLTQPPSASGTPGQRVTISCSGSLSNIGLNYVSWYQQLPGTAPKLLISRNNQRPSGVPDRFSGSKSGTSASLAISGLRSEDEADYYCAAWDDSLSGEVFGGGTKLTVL
notes: Fab, single VL mutant (S27L) of GL-P6
